Experimental data as given in publication PMC7396675, “Functional and Structural Characterization of a Potent C1q Inhibitor Targeting the Classical Pathway of the Complement System” (Frontiers in Immunology, 2020).

Key:
[1] = biological target: T1, monomeric single-chain recombinant gC1q (Homo sapiens); assay: BLI; Octet Red96, 30°C, 1,000 rpm; C1qNb75 immobilized on amine reactive (AR2G) biosensors; kinetics buffer (PBS, 1 mg/mL BSA, 0.05% Tween 20); gC1q 0.3 to 10.9 nM, C1q 0.7 to 5.4 nM; gC1q data globally fitted with a 1:1 binding model; settings: both partners purified
T1 construct: globular head module of human C1q A-chain; numbers count on: the mature protein; globular head module of human C1q C-chain; globular head module of human C1q B-chain; also called single-chain form of gC1q; hC1qGH
T1 chain: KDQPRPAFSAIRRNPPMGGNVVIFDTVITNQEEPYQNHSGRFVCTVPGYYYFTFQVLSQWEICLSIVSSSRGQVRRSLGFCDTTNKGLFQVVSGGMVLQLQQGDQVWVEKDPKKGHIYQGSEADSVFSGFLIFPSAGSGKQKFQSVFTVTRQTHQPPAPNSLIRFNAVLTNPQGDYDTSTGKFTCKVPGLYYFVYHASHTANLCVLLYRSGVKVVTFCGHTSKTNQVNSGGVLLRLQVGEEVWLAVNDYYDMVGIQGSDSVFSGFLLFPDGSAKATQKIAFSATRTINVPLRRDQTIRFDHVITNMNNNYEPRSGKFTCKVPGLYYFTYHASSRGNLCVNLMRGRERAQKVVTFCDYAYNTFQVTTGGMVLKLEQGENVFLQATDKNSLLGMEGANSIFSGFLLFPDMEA

human C1q = human C1q (Homo sapiens, UniProt P02745;P02746;P02747); assay: cell-based or functional assay
Chain of human C1q (P02745 23-245, chain 1 of 2): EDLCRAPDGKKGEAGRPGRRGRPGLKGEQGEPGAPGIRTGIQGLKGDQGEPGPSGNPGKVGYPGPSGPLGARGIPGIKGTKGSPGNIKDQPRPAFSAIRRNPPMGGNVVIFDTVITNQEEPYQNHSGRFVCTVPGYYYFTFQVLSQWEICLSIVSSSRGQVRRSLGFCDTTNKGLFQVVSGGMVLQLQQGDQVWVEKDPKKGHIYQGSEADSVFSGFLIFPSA
Chain of human C1q (P02747 29-245, chain 3 of 2): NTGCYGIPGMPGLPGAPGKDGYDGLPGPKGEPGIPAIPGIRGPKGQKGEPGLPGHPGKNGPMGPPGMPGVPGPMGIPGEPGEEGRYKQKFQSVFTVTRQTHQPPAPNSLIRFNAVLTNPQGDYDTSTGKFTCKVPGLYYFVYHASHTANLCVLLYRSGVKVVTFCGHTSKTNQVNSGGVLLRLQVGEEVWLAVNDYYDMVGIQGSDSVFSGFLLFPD

Kd [1]: 0.3 nM | t1/2 [1]: 1.14 h
B1: C1qNb75 (VHH)
VHH: QVQLVETGGGLVQAGGSLRLSCAASGRTFNNDVMAWFRQAPGTEREFVALITAGGGTHYADSVKGRFVISRDNDKNMAYLQMNSLKSEDTAIYYCGADENPPGWPSRWSSAYDYWGQGTQVTVSS
notes: nanobody chain of the crystal structure deposited here as PDB 6Z6V; also called C1q specific nanobody; source: E. coli LOBSTR cells (pET22b+), purified (Ni-NTA, MonoS, Superdex75)
IC50 of hemolysis of IgM-sensitized sheep RBCs in NHS with increasing concentrations of C1qNb75 (blocks C1q binding to IgM) (human C1q): 5.8 nM
